Numbering of substitutions follows the chain as printed. Values belong to the binder of their own block, whether it stands above or below them.
Molecular target: T1, CD3 epsilon homodimer protein (UniProt P07766 23-126)
T1 construct: also called CD3 (CD3 epsilon)
Assay: SPR, CD3 epsilon homodimer on chip, one-arm antibody as analyte;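 further: surface plasmon resonance at 25 °C with CD3 epsilon homodimer amine-coupled to a CM4 sensor chip, antibody injected as analyte, HBS-EP+ as running buffer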

T1 sequence (P07766 23-126): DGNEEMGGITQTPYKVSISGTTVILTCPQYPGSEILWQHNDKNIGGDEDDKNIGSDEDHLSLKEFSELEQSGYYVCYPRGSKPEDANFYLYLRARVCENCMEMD

B1: CE115HA000 A52aY (antibody, human IgG1, kappa, L234A L235A, N297A, name in Kabat numbering)
heavy: QVQLVESGGGVVQPGRSLRLSCAASGFTFSNAWMHWVRQAPGKGLEWVAQIKYKSNNYATYYAESVKGRFTISRDDSKNSLYLQMNSLKTEDTAVYYCRYVHYGAYYGVDAWGQGTTVTVSSASTKGPSVFPLAPSSKSTSGGTAALGCLVKDYFPEPVTVSWNSGALTSGVHTFPAVLQSSGLYSLSSVVTVPSSSLGTQTYICNVNHKPSNTKVDKKVEPKSCDKTHTCPPCPAPEAAGGPSVFLFPPKPKDTLMISRTPEVTCVVVDVSHEDPEVKFNWYVDGVEVHNAKTKPREEQYASTYRVVSVLTVLHQDWLNGKEYKCKVSNKALPAPIEKTISKAKGQPREPQVYTLPPSRCELTKNQVSLSCAVKGFYPSDIAVEWESNGQPENNYKTTPPVLDSDGSFFLVSKLTVDKSRWQQGNVFSCSVMHEALHNHYTQKSLSLSPDYKDDDDK
chain: EPKSSDKTHTCPPCPAPELLGGPSVFLFPPKPKDTLMISRTPEVTCVVVDVSHEDPEVKFNWYVDGVEVHNAKTKPREEQYNSTYRVVSVLTVLHQDWLNGKEYKCKVSNKALPAPIEKTISKAKGQPREPQVCTLPPSRDELTKNQVSLWCLVKGFYPSDIAVEWESNGQPENNYKTTPPVLDSDGSFFLYSKLTVDKSRWQQGNVFSCSVMHEALHNRYTQKSLSLSP
light: DIVMTQSPLSLPVTPGEPASISCRSSQSLVHSNRNTYLHWYQQKPGQAPRLLIYKVSNRFSGVPDRFSGSGSGTDFTLKISRVEAEDVGVYYCGQGTQVPYTFGQGTKLEIKRTVAAPSVFIFPPSDEQLKSGTASVVCLLNNFYPREAKVQWKVDNALQSGNSQESVTEQDSKDSTYSLSSTLTLSKADYEKHKVYACEVTHQGLSSPVTKSFNRGEC
notes: one-arm antibody
- KD ratio (KD of CE115HA000/KD of altered form): 7.71

B2: CE115HA000 A99L (antibody, human IgG1, kappa, L234A L235A, N297A, name in Kabat numbering)
heavy: B1 heavy with Y53A, A105L
chain: B1 chain
light: B1 light
notes: one-arm antibody
- KD ratio (KD of CE115HA000/KD of altered form): 1

B3: CE115HA000 A60D (antibody, human IgG1, kappa, L234A L235A, N297A, name in Kabat numbering)
heavy: B1 heavy with Y53A, A63D
chain: B1 chain
light: B1 light
notes: one-arm antibody
- KD ratio (KD of CE115HA000/KD of altered form): 0.94

B4: CE115HA000 A56G (antibody, human IgG1, kappa, L234A L235A, N297A, name in Kabat numbering)
heavy: B1 heavy with Y53A, A59G
chain: B1 chain
light: B1 light
notes: one-arm antibody
- KD ratio (KD of CE115HA000/KD of altered form): 0.59

B5: CE115HA000 A99F (antibody, human IgG1, kappa, L234A L235A, N297A, name in Kabat numbering)
heavy: B1 heavy with Y53A, A105F
chain: B1 chain
light: B1 light
notes: one-arm antibody
- KD ratio (KD of CE115HA000/KD of altered form): 1.15

B7: CE115HA000 A60E (antibody, human IgG1, kappa, L234A L235A, N297A, name in Kabat numbering)
heavy: B1 heavy with Y53A, A63E
chain: B1 chain
light: B1 light
notes: one-arm antibody
- KD ratio (KD of CE115HA000/KD of altered form): 0.88

B8: CE115HA000 A56Q (antibody, human IgG1, kappa, L234A L235A, N297A, name in Kabat numbering)
heavy: B1 heavy with Y53A, A59Q
chain: B1 chain
light: B1 light
notes: one-arm antibody
- KD ratio (KD of CE115HA000/KD of altered form): 0.74

B9: CE115HA000 A99D (antibody, human IgG1, kappa, L234A L235A, N297A, name in Kabat numbering)
heavy: B1 heavy with Y53A, A105D
chain: B1 chain
light: B1 light
notes: one-arm antibody
- KD ratio (KD of CE115HA000/KD of altered form): 1.03

B12: CE115HA000 A99K (antibody, human IgG1, kappa, L234A L235A, N297A, name in Kabat numbering)
heavy: B1 heavy with Y53A, A105K
chain: B1 chain
light: B1 light
notes: one-arm antibody
- KD ratio (KD of CE115HA000/KD of altered form): 1.4

B15: CE115HA000 A56N (antibody, human IgG1, kappa, L234A L235A, N297A, name in Kabat numbering)
heavy: B1 heavy with Y53A, A59N
chain: B1 chain
light: B1 light
notes: one-arm antibody
- KD ratio (KD of CE115HA000/KD of altered form): 0.84

B16: CE115HA000 A56Y (antibody, human IgG1, kappa, L234A L235A, N297A, name in Kabat numbering)
heavy: B1 heavy with Y53A, A59Y
chain: B1 chain
light: B1 light
notes: one-arm antibody
- KD ratio (KD of CE115HA000/KD of altered form): 0.63

B18: CE115HA000 A56L (antibody, human IgG1, kappa, L234A L235A, N297A, name in Kabat numbering)
heavy: B1 heavy with Y53A, A59L
chain: B1 chain
light: B1 light
notes: one-arm antibody
- KD ratio (KD of CE115HA000/KD of altered form): 0.77

B21: CE115HA000 A56K (antibody, human IgG1, kappa, L234A L235A, N297A, name in Kabat numbering)
heavy: B1 heavy with Y53A, A59K
chain: B1 chain
light: B1 light
notes: one-arm antibody
- KD ratio (KD of CE115HA000/KD of altered form): 1.32

B22: CE115HA000 A56D (antibody, human IgG1, kappa, L234A L235A, N297A, name in Kabat numbering)
heavy: B1 heavy with Y53A, A59D
chain: B1 chain
light: B1 light
notes: one-arm antibody
- KD ratio (KD of CE115HA000/KD of altered form): 0.71

The remaining lines, values ahead:

- KD ratio (KD of CE115HA000/KD of altered form): 0.85
B6: CE115HA000 A99Q (antibody, human IgG1, kappa, L234A L235A, N297A, name in Kabat numbering)
heavy: B1 heavy with Y53A, A105Q
chain: B1 chain
light: B1 light
notes: one-arm antibody

- KD ratio (KD of CE115HA000/KD of altered form): 1.25
B10: CE115HA000 A99Y (antibody, human IgG1, kappa, L234A L235A, N297A, name in Kabat numbering)
heavy: B1 heavy with Y53A, A105Y
chain: B1 chain
light: B1 light
notes: one-arm antibody

- KD ratio (KD of CE115HA000/KD of altered form): 1.19
B11: CE115HA000 D72A (antibody, human IgG1, kappa, L234A L235A, N297A, name in Kabat numbering)
heavy: B1 heavy with Y53A, D75A
chain: B1 chain
light: B1 light
notes: one-arm antibody

- KD ratio (KD of CE115HA000/KD of altered form): 0.76
B13: CE115HA000 A99S (antibody, human IgG1, kappa, L234A L235A, N297A, name in Kabat numbering)
heavy: B1 heavy with Y53A, A105S
chain: B1 chain
light: B1 light
notes: one-arm antibody

- KD ratio (KD of CE115HA000/KD of altered form): 1.29
B14: CE115HA000 A102I (antibody, human IgG1, kappa, L234A L235A, N297A, name in Kabat numbering)
heavy: B1 heavy with Y53A, A111I
chain: B1 chain
light: B1 light
notes: one-arm antibody

- KD ratio (KD of CE115HA000/KD of altered form): 3.51
B17: CE115HA000 A102P (antibody, human IgG1, kappa, L234A L235A, N297A, name in Kabat numbering)
heavy: B1 heavy with Y53A, A111P
chain: B1 chain
light: B1 light
notes: one-arm antibody

- KD ratio (KD of CE115HA000/KD of altered form): 1
B19: CE115HA000 A102Y (antibody, human IgG1, kappa, L234A L235A, N297A, name in Kabat numbering)
heavy: B1 heavy with Y53A, A111Y
chain: B1 chain
light: B1 light
notes: one-arm antibody

- KD ratio (KD of CE115HA000/KD of altered form): 1.27
B20: CE115HA000 A102V (antibody, human IgG1, kappa, L234A L235A, N297A, name in Kabat numbering)
heavy: B1 heavy with Y53A, A111V
chain: B1 chain
light: B1 light
notes: one-arm antibody

- KD ratio (KD of CE115HA000/KD of altered form): 0.93
B23: CE115HA000 A99T (antibody, human IgG1, kappa, L234A L235A, N297A, name in Kabat numbering)
heavy: B1 heavy with Y53A, A105T
chain: B1 chain
light: B1 light
notes: one-arm antibody

— US20210388087A1 (Chugai, published 2021)
